Positions count from the first letter of the chain named. Names and notes keep the numbering of the source.
T1: EBOV GP on rVSV particles (Ebola virus (EBOV), UniProt Q05320 33-676)
T1 sequence: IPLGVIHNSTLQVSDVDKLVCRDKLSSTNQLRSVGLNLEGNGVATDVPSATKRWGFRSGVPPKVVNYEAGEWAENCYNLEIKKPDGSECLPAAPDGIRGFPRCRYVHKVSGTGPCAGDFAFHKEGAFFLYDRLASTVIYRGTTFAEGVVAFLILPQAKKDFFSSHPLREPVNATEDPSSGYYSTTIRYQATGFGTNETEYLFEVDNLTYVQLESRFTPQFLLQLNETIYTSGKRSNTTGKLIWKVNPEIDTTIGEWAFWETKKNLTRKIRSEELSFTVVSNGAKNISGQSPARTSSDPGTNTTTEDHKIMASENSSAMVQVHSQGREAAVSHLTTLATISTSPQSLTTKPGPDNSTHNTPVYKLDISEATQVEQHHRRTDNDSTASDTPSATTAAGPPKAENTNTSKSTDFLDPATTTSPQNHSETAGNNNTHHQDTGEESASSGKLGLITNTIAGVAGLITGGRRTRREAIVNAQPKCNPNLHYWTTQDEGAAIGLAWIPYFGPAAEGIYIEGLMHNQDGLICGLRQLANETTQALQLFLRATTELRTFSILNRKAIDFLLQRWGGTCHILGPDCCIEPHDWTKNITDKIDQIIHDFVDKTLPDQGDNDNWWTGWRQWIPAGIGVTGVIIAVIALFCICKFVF

T2: SUDV GP on rVSV particles (Sudan virus (SUDV), UniProt Q66814 33-676)
T2 sequence: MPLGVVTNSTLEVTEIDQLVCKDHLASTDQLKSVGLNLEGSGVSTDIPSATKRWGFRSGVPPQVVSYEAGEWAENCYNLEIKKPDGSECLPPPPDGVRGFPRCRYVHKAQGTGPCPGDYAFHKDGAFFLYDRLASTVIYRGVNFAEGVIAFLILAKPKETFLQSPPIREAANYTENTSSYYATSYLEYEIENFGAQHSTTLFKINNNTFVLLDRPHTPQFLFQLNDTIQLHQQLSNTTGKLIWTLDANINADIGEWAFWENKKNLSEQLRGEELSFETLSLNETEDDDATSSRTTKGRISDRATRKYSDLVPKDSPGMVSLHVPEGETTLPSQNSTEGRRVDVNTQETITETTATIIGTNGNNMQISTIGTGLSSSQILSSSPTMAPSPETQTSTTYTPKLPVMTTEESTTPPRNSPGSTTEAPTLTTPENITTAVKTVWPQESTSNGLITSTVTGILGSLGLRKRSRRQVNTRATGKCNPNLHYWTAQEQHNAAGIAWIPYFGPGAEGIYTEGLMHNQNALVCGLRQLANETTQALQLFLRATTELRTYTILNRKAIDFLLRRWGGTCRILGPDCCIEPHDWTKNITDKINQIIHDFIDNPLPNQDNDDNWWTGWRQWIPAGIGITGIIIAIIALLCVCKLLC

T3: RESTV GP on rVSV particles (Reston virus (RESTV), UniProt Q66799 34-677)
T3 sequence: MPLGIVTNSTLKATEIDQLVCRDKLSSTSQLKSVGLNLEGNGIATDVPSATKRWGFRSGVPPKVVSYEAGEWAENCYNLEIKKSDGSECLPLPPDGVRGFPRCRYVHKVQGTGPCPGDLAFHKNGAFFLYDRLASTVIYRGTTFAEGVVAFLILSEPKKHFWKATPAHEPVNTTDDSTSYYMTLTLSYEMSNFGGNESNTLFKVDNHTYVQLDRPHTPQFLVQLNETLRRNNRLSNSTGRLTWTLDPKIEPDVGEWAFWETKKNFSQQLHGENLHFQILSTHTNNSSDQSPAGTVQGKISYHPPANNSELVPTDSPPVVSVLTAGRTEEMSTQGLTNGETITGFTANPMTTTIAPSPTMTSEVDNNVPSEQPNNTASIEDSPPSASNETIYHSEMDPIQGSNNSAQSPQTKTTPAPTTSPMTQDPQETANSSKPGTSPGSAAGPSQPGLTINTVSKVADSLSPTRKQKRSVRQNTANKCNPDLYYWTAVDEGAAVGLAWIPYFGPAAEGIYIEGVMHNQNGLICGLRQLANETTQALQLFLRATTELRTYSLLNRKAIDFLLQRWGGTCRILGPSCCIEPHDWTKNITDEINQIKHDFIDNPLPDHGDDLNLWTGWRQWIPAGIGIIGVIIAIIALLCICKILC

T4: TAFV GP on VSV pseudotype particles (Tai Forest virus (TAFV), UniProt Q66810 33-676)
T4 sequence: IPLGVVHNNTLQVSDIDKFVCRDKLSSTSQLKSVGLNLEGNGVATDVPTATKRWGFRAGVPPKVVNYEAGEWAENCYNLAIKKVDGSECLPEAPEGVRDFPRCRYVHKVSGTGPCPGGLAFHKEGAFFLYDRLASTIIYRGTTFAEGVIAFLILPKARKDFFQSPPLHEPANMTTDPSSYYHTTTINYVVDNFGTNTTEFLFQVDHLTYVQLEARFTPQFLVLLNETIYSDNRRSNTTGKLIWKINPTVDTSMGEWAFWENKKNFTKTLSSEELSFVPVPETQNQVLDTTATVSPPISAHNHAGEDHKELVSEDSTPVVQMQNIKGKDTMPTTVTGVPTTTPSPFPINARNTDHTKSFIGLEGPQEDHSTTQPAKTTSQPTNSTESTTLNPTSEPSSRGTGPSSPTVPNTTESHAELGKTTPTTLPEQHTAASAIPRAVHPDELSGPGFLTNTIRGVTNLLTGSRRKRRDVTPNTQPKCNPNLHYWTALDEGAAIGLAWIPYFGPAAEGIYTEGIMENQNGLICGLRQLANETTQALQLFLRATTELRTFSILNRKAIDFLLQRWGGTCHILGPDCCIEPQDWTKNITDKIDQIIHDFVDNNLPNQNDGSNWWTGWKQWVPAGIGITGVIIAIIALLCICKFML

B1: PE-87 D99A (antibody, V domains shown)
VH: QVQLVQSGVTLVQPGGSLRVSCAASGFTFSSYAMSWVRQAPGKGLEWVSAISGLGGSTYYADSVKGRFTISRDNSKNTLYLQMNSLRAEDTAVYYCAKAHRVWAAGYHFDYWGQGALVTVSS
VL: DIVLTQSPSTLSASVGDRVTITCRASQSISSWLAWYQQKPGEAPKLLISDASSLESGVPSRFSGSGSGTEFTLTISSLQPDDFATYYCQQYYSSPTFGGGTKVEIK
B2: PE-87 D110A (antibody, V domains shown)
VH: B1 VH with A99D, D110A
VL: B1 VL
B3: PE-87 G106A (antibody, V domains shown)
VH: B1 VH with A99D, G106A
VL: B1 VL
B4: PE-87 F109A (antibody, V domains shown)
VH: B1 VH with A99D, F109A
VL: B1 VL
B5: PE-87 H108A (antibody, V domains shown)
VH: B1 VH with A99D, H108A
VL: B1 VL
B6: PE-87 H100A (antibody, V domains shown)
VH: B1 VH with A99D, H100A
VL: B1 VL
B7: PE-87 Y111A (antibody, V domains shown)
VH: B1 VH with A99D, Y111A
VL: B1 VL
B8: PE-87 R101A (antibody, V domains shown)
VH: B1 VH with A99D, R101A
VL: B1 VL
B9: PE-87 Y107A (antibody, V domains shown)
VH: B1 VH with A99D, Y107A
VL: B1 VL
B10: PE-87 V102A (antibody, V domains shown)
VH: B1 VH with A99D, V102A
VL: B1 VL
B11: PE-87 W103A (antibody, V domains shown)
VH: B1 VH with A99D, W103A
VL: B1 VL

target: T1, EBOV GP on rVSV particles; experiment: cell-based or functional assay

Going from B1 to B2, the “IC50 (nM), neutralization of rVSV-GP” value falls from over 500 nM to 2 nM.

Going from B3 to B4, the “IC50 (nM), neutralization of rVSV-GP” value rises from 0.8 nM to 4.2 nM (5.2-fold).

Going from B5 to B6, the “IC50 (nM), neutralization of rVSV-GP” value falls from 3.2 nM to 1 nM (3.2-fold).

Compared with B7, B8 is 4-fold higher in “IC50 (nM), neutralization of rVSV-GP” value: 0.8 nM for the first, 3.2 nM for the second.

First: B9
Second: B10
The “IC50 (nM), neutralization of rVSV-GP” value of the first is 5-fold higher: 3 nM for the first, 0.6 nM for the second.

target: T2, SUDV GP on rVSV particles; experiment: cell-based or functional assay

Going from B2 to B3, the “IC50 (nM), neutralization of rVSV-GP” value falls from 1.5 nM to 0.9 nM (1.7-fold).

B4 and B5 are the same in “IC50 (nM), neutralization of rVSV-GP” value: 2.1 nM for the first, 2.1 nM for the second.

B6 and B7 are within 1.5-fold of each other in “IC50 (nM), neutralization of rVSV-GP” value: 1 nM for the first, 0.8 nM for the second.

Going from B8 to B9, the “IC50 (nM), neutralization of rVSV-GP” value rises from 1.5 nM to over 350 nM.

With B10 the “IC50 (nM), neutralization of rVSV-GP” value was 1.1 nM.

target: BDBV GP on rVSV particles (Bundibugyo virus (BDBV)); experiment: cell-based or functional assay

First: B11
Second: B2
The “IC50 (nM), neutralization of rVSV-GP” value of the first is higher: over 200 nM for the first, 0.9 nM for the second.

B3 and B4 are within 1.5-fold of each other in “IC50 (nM), neutralization of rVSV-GP” value: 0.4 nM for the first, 0.3 nM for the second.

B5 and B6 are within 1.5-fold of each other in “IC50 (nM), neutralization of rVSV-GP” value: 0.6 nM for the first, 0.4 nM for the second.

B7 and B8 are the same in “IC50 (nM), neutralization of rVSV-GP” value: 0.4 nM for the first, 0.4 nM for the second.

Going from B9 to B10, the “IC50 (nM), neutralization of rVSV-GP” value falls from 0.8 nM to 0.2 nM (4-fold).

target: T3, RESTV GP on rVSV particles; experiment: cell-based or functional assay

Going from B2 to B3, the “IC50 (nM), neutralization of rVSV-GP” value falls from 0.4 nM to 0.2 nM (2-fold).

B4 and B5 are within 1.5-fold of each other in “IC50 (nM), neutralization of rVSV-GP” value: 0.4 nM for the first, 0.5 nM for the second.

Compared with B6, B7 is 2-fold lower in “IC50 (nM), neutralization of rVSV-GP” value: 0.2 nM for the first, 0.1 nM for the second.

First: B8
Second: B9
The “IC50 (nM), neutralization of rVSV-GP” value of the first is 6.5-fold lower: 0.2 nM for the first, 1.3 nM for the second.

In the case of B10, the “IC50 (nM), neutralization of rVSV-GP” value is reported as 0.2 nM.

target: T4, TAFV GP on VSV pseudotype particles; experiment: cell-based or functional assay

B1 and B11 cannot be ordered by “IC50 (nM), neutralization of rVSV-GP” value: over 350 nM for the first, over 150 nM for the second.

First: B2
Second: B3
The “IC50 (nM), neutralization of rVSV-GP” value of the first is 2.6-fold higher: 2.1 nM for the first, 0.8 nM for the second.

B4 and B5 are within 1.5-fold of each other in “IC50 (nM), neutralization of rVSV-GP” value: 2.8 nM for the first, 2.2 nM for the second.

B6 and B7 are within 1.5-fold of each other in “IC50 (nM), neutralization of rVSV-GP” value: 0.8 nM for the first, 1.1 nM for the second.

Going from B8 to B9, the “IC50 (nM), neutralization of rVSV-GP” value falls from 1.9 nM to 0.8 nM (2.4-fold).

With B10 the “IC50 (nM), neutralization of rVSV-GP” value was 1 nM.

Source: patent publication US20180244758A1 (MAPP BIOPHARMACEUTICAL, published 2018)
